Target: active IL-18 protein (human IL-18, positions 37 to 193), expressed and purified in E. coli (human) (UniProt Q14116)
Assay: capillary western immunoassay (Wes), primary antibody at 1:25 dilution (16 μg/mL)

UniProt Q14116, sequence (Q14116 37-193 limits assumed): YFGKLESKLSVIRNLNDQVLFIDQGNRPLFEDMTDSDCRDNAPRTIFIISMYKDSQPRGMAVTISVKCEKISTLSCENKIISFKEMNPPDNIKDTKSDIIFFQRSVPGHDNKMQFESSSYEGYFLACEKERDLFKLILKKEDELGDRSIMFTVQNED

Substance: commercially available anti-IL-18 antibody D043-3: clone 25-2G
- concentration of IL-18 protein detectable: 100 ng/mL
